The values below come from patent publication US20200392247A1 (MCMASTER UNIVERSITY, published 2020).

For one assay, the target named is β-Actin (UniProt P60709 1-375). Kind of assay: immunoprecipitation of the Tri-TAC with recombinant HER-2 beads from 293TM cells, Western blot. As for the experimental part:
(§1) FIG. 5 illustrates Lck interaction with the Tri-TAC. In FIG. 5A, 293TM cells were engineered to express Lck in combination with either the full-length Tri-TAC or a Tri-TAC variant that lacked the cytosolic domain that interacts with Lck. The Tri-TAC receptors were immunoprecipitated with beads carrying recombinant HER-2 protein. The precipitated Tri-TAC was measured by Western blot with an antibody against the myc tag. Co-precipitated Lck was identified by Western blot with an antibody against Lck. β-Actin was not pulled down and only detected in the supernatant (S). Both full length Tri-TAC and the Tri-TAC that lacked the cytosolic domain were efficiently pulled down and detected in the bound fraction (B). […] Greater amounts of Lck were co-immunopreciptated with the full-length Tri-TAC relative to the controls. […] Signal was corrected relative to the negative control.

A further assay addresses T1, recombinant HER-2 (UniProt P04626 23-652, limits assumed).
T1 construct: also called recombinant HER-2 protein; HER-2 (erbB-2)
Put plainly: flow cytometry of engineered T cells stained with recombinant HER-2. The protocol:
The chimeric receptors were detected by incubation with recombinant HER-2. The Anti-HER-2 DARPin Tri-TAC was expressed well on the surface of the engineered T cells. However, its maximal surface expression was lower compared to the Anti-HER-2 DARPin CAR construct. […] T cells were activated with anti-CD3/anti-CD28 Dynabeads and engineered with lentiviruses encoding the Tri-TAC, CAR or no receptor (control). After 2 weeks, the CAR and control cultures had grown to similar numbers while the Tri-TAC cultures grew slightly more slowly.
A general note: In flow cytometry, cells or beads pass a laser one at a time.

For another assay, the target named is T2, Lck (UniProt P06239 1-509, limits assumed).
T2 construct: also called protein kinase Lck
T2 sequence (P06239 whole entry): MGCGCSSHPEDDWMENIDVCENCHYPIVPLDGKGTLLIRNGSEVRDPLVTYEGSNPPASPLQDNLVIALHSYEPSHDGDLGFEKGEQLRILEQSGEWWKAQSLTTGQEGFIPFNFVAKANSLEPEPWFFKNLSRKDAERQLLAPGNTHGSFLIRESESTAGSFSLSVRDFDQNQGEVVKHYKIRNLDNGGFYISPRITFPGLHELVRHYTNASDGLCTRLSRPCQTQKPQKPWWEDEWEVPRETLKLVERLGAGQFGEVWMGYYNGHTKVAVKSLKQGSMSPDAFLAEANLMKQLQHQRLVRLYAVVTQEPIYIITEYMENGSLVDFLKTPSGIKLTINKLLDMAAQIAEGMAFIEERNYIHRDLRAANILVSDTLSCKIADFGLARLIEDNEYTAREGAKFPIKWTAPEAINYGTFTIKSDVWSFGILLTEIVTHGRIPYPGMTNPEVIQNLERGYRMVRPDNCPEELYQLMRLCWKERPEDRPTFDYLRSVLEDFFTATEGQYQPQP
Kind of assay: co-immunoprecipitation with recombinant HER-2 beads from 293TM cells, Western blot for Lck. As for the experimental part: as §1

B1: Anti-HER-2 DARPin Tri-TAC (full-length Trifunctional T cell-antigen coupler, configuration 1) (other)
chain: MSRGSDLGKKLLEAARAGQDDEVRILMANGADVNAKDEYGLTPLYLATAHGHLEIVEVLLKNGADVNAVDAIGFTPLHLAAFIGHLEIAEVLLKHGADVNAQDKFGKTAFDISIGNGNEDLAEILQKLNEQKLISEEDLNPGGGGGSGGGGSGGGGSGGGGSGSMDIQMTQTTSSLSASLGDRVTISCRASQDIRNYLNWYQQKPDGTVKLLIYYTSRLHSGVPSKFSGSGSGTDYSLTISNLEQEDIATYFCQQGNTLPWTFAGGTKLEIKGGGGSGGGGSGGGGSGGGGSEVQLQQSGPELVKPGASMKISCKASGYSFTGYTMNWVKQSHGKNLEWMGLINPYKGVSTYNQKFKDKATLTVDKSSSTAYMELLSLTSEDSAVYYCARSGYYGDSDWYFDVWGQGTTLTVFSTSGGGGSLESGQVLLESNIKVLPTWSTPVQPMALIVLGGVAGLLLFIGLGIFFCVRCRHRRRQAERMSQIKRLLSEKKTCQCPHRFQKTCSPI
notes: also called N-Darpin Tri TAC; full length Tri-TAC
With B1, the binding result in the assay with β-Actin is on record as “no binding”; with recombinant HER-2, “binds”.

B2: Anti-HER-2 DARPin CAR (CD28-based CAR) (other)
chain: MSRGSDLGKKLLEAARAGQDDEVRILMANGADVNAKDEYGLTPLYLATAHGHLEIVEVLLKNGADVNAVDAIGFTPLHLAAFIGHLEIAEVLLKHGADVNAQDKFGKTAFDISIGNGNEDLAEILQKLN
notes: Expressed on the surface of engineered human T cells; also called conventional CAR with the same DARPin; anti-HER-2 DARPin CD28-based CAR; not shown: rest of the CD28-based CAR (hinge, transmembrane and signalling domains)
With B2, the binding result with recombinant HER-2 was “binds”.

B3: Tri-TAC variant that lacked the cytosolic domain that interacts with Lck (other)
chain: MSRGSDLGKKLLEAARAGQDDEVRILMANGADVNAKDEYGLTPLYLATAHGHLEIVEVLLKNGADVNAVDAIGFTPLHLAAFIGHLEIAEVLLKHGADVNAQDKFGKTAFDISIGNGNEDLAEILQKLNEQKLISEEDLNPGGGGGSGGGGSGGGGSGGGGSGSMDIQMTQTTSSLSASLGDRVTISCRASQDIRNYLNWYQQKPDGTVKLLIYYTSRLHSGVPSKFSGSGSGTDYSLTISNLEQEDIATYFCQQGNTLPWTFAGGTKLEIKGGGGSGGGGSGGGGSGGGGSEVQLQQSGPELVKPGASMKISCKASGYSFTGYTMNWVKQSHGKNLEWMGLINPYKGVSTYNQKFKDKATLTVDKSSSTAYMELLSLTSEDSAVYYCARSGYYGDSDWYFDVWGQGTTLTVFSTSGGGGSLESGQVLLESNIKVLPTWSTPVQPMALIVLGGVAGLLLFIGLGIFF
notes: Expressed in 293TM cells; also called cytosolic deletion; TAC without cytosolic domain
As to B3, the binding result with β-Actin and in the assay with Lck was “no binding” each time.
